Laboratory results published in the supplement of paper PMC10567573.

B1: IRX6 (parent)
chain: YPCLEKPRIWSLAHTATASAVEGA
B2: ZNF8 (parent)
chain: KPYTCSVCGKSFSRTTCLFLHLRT

Variants of: B1
Assay: protein stability index of a GFP-peptide fusion (GPS, HEK-293T) (PSI 1-6); higher = more stable
Conditions: c terminus: a fixed tail appended
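Note: lentivirally expressed fusions sorted by FACS into six bins by GFP to DsRed ratio, PSI derived from sequencing read proportions per bin multiplied by bin number.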

Protein stability index: each site, then its substitutions
E22: L 2.67; G 3.1; H 2.05; M 3.75; P 2.34; V 2.62; C 3.29; R 2.98; K 2.29; S 1.1; T 2.63; D 2.16; F 3.04; W 1.73; N 3.13
E5: A 1.95; D 2.81; K 2.92; S 2.98; N 2.34; F 3.7; T 3.97; P 2.63; L 3.24; R 3.21; Y 2.68; H 2.37; V 4.3; W 1.9; C 3.7; G 3.15; Q 3.22
P7: M 2.92; Q 2.32; H 2.44; T 3.24; Y 2.59; V 1.89; A 3.29; E 2.27; K 3.5; D 4.03; C 2.69; G 2.84
T15: C 3.17; H 3.31; A 2.74; L 1.12; R 3.79; D 2.85; K 3.51; I 1.72; S 2.26; W 2.34; G 1.75
T17: P 2.72; G 3.55; L 1.25; A 1.71; K 2; D 2.17; Y 2.64; E 3.16; S 1.83; W 2.29; N 2.37; Q 4.21; M 2.36
S19: V 2.07; E 1.97; W 3.1; F 3.32; R 1.91; N 2.27; I 2.52; Q 3.07; Y 4.1; D 1.83; K 1.9; M 2.98
A24: C 2.18; E 2.22; D 2.95
L4: F 2.58; I 2.46; Q 1.49; E 2.64; S 1.81; W 2.68; A 4.55; P 2.5; Y 2.53; T 3.03; K 2.37; M 4.4; V 2.07
R8: Y 2.17; E 2.22; N 3.06; F 2.49; H 1.83; I 2.87; D 3.96; C 3.13; V 2.48; L 3.04; Q 1.96; P 2.2; M 2.79
K6: L 1.2; G 2.34; F 2.54; S 3.68; P 2.1; M 2.41; R 1.88; V 2.61; I 1.59; N 1.48; H 1.79; W 2.69
S11: E 1.99; Q 1.53; L 1.87; I 2.48; A 1.3; N 2.31; V 1.99; R 2.05; C 1.61; D 1.74; M 1.82; K 2.58; F 1.94; H 1.86; Y 2.16
A13: Y 3.33; P 2.35; M 1.35; T 1.96; V 3.26; G 2.44; E 2.17; H 2.74; I 3.27; Q 2.46; K 2.9; D 2.71
W10: K 4.42; T 4.09; V 3.85; G 4; E 4.71; Y 1.62; D 4.13; M 3.65; Q 4.16; F 1.98; L 3.78; I 3.27; H 4.23; R 4.26; N 4.27; C 3.19; P 4.3; S 4.42; A 4.14
G23: A 2.6; V 3.24; E 2.33; L 2.7; C 1.41; W 1.98; S 2.13; F 2.97; T 2.95; N 2.68; Y 3.63; I 3.44; Q 1.25
P2: Y 2.69; M 3.06; N 4.81; I 2.96; W 3.12; F 2.41; R 2.37; A 2.82; G 3.7; H 2.9; Q 2.98; E 2.29; S 1.7; L 1.88; T 3.4; D 2.28; V 2.51; K 2.82
V21: M 1.82; N 2.73; D 1.82; L 1.1; F 3.51; K 1.45; P 3.82; T 2.23; H 2.21; R 2.62; C 1.23; S 1.6; W 3.41; Y 2.29
A18: R 3.8; V 2.84; D 1.78; I 3.17; Y 3; M 3.02; T 3.02; K 2.59; H 2.15; N 2.65; W 2.05; P 3.41
L12: T 2.72; E 1.7; C 3.12; F 2.26; V 1.58; P 3.53; K 2.72; G 2.03; M 2.36; R 2.19; N 1.72; Q 2.87; I 2.81; D 2.91
A20: H 3.49; T 2.11; Y 4.34; K 3.07; M 1.53; I 2.52; L 3.52; N 2.87; E 1.86; D 2.67; F 1.69
A16: I 1.94; H 1.77; S 1.93; E 4.29; P 1.53; D 1.89; F 5.06; W 3.44; Y 2.99; K 2.68; V 4.23; T 3.04; Q 2.45; M 3.88; L 1.87; C 2.12; N 3.02
Y1: E 4.33; H 2.54; S 3.81; F 1.86; A 4.1; L 3.59; V 3.89; Q 3.79; M 3.83; N 3.84; D 3.84; G 3.53; W 2.82; P 4.08; T 3.36; C 2.82; R 3.33; I 2.88; K 3.73
H14: S 2.18; Q 2.52; L 3.94; F 4.18; K 1.66; P 2.48; D 2.01; I 1.41; M 2.34; E 1.84; V 3.43
I9: S 1.65; M 3.85; L 2.98; P 2.35; Q 2.28; H 1.25; N 2.48; K 2.46; Y 2.3; R 2.27; A 3.17; D 3.49; E 3.59; F 2.3; G 2.2; V 3.31; C 1.98; T 1.51
C3: P 2.12; I 1.74; M 2.28; G 2.91; V 1.66; R 2.76; T 2.85; E 1.85; H 2.16; A 1.96; Q 2.14; L 1.86; Y 1.54; D 1.58; K 3.76; W 1.68; N 1.37; S 2.46; F 3.06

Variants of: B2
Assay: as above
Conditions: c terminus: a fixed tail appended

Protein stability index, by site and new letter:
L22: Y 1.8
